Results from article PMC3630055, “Bovine HEXIM1 inhibits bovine immunodeficiency virus replication through regulating BTat-mediated transactivation” (Veterinary Research, 2013).

Target: T1, His-BHEXIM1 (bovine, UniProt Q0X0C4 1-320)
T1 construct: bovine HEXIM1 (320 amino acids); pETH vector; the only BHEXIM1 cDNA described was amplified from the start to the stop codon (320 aa), so the construct is probably whole; also called purified BHEXIM1 protein; source: E. coli BL21 (DE3), purified (His Sepharose 6)
T1 sequence (looked up): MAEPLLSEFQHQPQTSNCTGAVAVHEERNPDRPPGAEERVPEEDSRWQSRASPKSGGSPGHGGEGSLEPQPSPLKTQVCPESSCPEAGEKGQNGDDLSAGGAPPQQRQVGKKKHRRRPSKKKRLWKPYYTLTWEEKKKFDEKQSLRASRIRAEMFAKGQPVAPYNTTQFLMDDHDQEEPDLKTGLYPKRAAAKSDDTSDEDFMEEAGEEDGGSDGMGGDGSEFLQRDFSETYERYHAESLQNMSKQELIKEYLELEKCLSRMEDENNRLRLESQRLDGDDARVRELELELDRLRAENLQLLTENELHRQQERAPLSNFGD
Test: pull-down; purified GST or GST-B-cyclin T1 immobilised on glutathione Sepharose 4B beads, incubated with purified His-fusion proteins; anti-His immunoblot; in the competition 20 μg GST-B-cyclin T1, 5 μg His-BTat and 1, 5, 10, 20 μg His-BHEXIM1
Settings: both partners purified

B1: GST-B-cyclin T1 (aa 1-272) (domain or fragment, bovine, UniProt Q6T8E9 1-272, looked up)
chain: MEGERKNNNKRWYFTREQLENSPSRRFGLDPDKELSNRQQAANLLQDMGQRLNVSQLTINTAIVYMHRFYMIQSFTQFHRNSVAPAALFLAAKVEEQPKKLEHVIKVAHTCLHPQESLPDTRSEAYLQQVQDLVILESIILQTLGFELTIDHPHTHVVKCTQLVRASKDLAQTSYFMATNSLHLTTFSLQYTPPVVACVCIHLACKWSNWEIPVSTDGKHWWEYVDATVTLELLDELTHEFLQILEKTPNRLKRIWNWRAWQADRKTKADDR
notes: bovine cyclin T1, residues 1-272; pGEX6p-1 vector; source: E. coli BL21 (DE3), purified (glutathione Sepharose 4B)
Does B1 bind?
Result: binds
